Assay results: patent US20260001933A1 (PETMEDIX, published 2026)
Where two headings read alike, the source gives them in different places.

T1: Canine FcRn-B2M recombinant protein (Immunitrack) (canine, UniProt A0A8I3PFR8 25-296; P19341 1-42)
T1 chain 1: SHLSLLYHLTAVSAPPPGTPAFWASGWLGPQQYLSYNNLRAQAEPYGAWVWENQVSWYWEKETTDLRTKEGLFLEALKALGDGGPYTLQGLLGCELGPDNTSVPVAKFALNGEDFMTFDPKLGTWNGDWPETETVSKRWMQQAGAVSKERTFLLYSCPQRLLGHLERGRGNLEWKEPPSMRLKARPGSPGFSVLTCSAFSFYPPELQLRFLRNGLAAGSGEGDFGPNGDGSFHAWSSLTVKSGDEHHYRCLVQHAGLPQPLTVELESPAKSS
T1 chain 2: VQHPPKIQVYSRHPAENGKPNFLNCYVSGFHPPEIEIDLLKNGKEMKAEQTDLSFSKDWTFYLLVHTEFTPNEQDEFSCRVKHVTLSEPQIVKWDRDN

T2: Murine FcRn-B2M recombinant protein (Immunitrack) (murine, UniProt Q61559 22-297; P01887 21-119, limits assumed)
T2 construct: Bought reagent; also called murine neonatal receptor
T2 sequence (looked up): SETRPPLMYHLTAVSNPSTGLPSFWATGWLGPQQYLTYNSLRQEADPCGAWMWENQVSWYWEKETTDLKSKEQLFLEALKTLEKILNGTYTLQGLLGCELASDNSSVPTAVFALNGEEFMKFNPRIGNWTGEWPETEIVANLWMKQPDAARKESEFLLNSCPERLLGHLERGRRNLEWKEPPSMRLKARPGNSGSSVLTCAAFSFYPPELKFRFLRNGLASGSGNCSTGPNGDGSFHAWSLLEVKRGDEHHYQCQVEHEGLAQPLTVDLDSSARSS
T2 sequence (b2m, looked up): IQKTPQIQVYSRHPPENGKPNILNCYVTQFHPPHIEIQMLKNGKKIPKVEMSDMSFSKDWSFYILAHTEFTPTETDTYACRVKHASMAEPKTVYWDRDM


What was measured:
[1] = target: T1, Canine FcRn-B2M recombinant protein …; experiment: SPR (Biacore 8K), canine FcRn-B2M amine-coupled on CM5, running buffer pH 6, fusion protein as analyte; steady state affinity
[2] = target: T2, Murine FcRn-B2M recombinant protein …; experiment: SPR (Biacore 8K), murine FcRn-B2M amine-coupled on CM5, running buffer pH 6, fusion protein as analyte; steady state affinity
[3] = target: T3, Protein A (Sensor Chip Protein A, Cytiva) (UniProt P38507 212-269); experiment: SPR (Biacore 8K), Sensor Chip Protein A, fusion protein produced in CHO-s injected over the chip, 1:1 binding kinetic fit; column head 'Kinetics affinity KD (nM)'
T3 construct: Commercial chip ligand; It may be a recombinant variant of staphylococcal protein A

[4] = target: T4, Human nerve growth factor (NGF) (human, UniProt P01138 122-241); experiment: SPR (Biacore 8K), PetML119 captured on Protein A chip, human NGF as analyte, multi-cycle kinetics; column head 'Kinetics affinity KD (nM)'
T4 construct: Bought reagent; also called human NGF; hNGF

[5] = target: T4, Human nerve growth factor (NGF); experiment: cell-based or functional assay
[6] = target: T5, Rat nerve growth factor (NGF) (rat, UniProt P25427 122-241); experiment: SPR (Biacore 8K), PetML119 captured on Protein A chip, rat NGF as analyte, multi-cycle kinetics; column head 'Kinetics affinity KD (nM)'
T5 construct: Bought reagent; also called rat NGF

[7] = target: T3, Protein A (Sensor Chip Protein A, …); experiment: SPR (Biacore 8K), Sensor Chip Protein A, fusion protein produced in CHOZN injected over the chip, 1:1 binding kinetic fit; column head 'Kinetics affinity KD (nM)'
[8] = target: T1, Canine FcRn-B2M recombinant protein …; experiment: SPR (Biacore 8K), canine FcRn-B2M amine-coupled on CM5, running buffer pH 6, fusion protein as analyte; steady state affinity
[9] = target: T2, Murine FcRn-B2M recombinant protein …; experiment: SPR (Biacore 8K), murine FcRn-B2M amine-coupled on CM5, running buffer pH 6, fusion protein as analyte; steady state affinity; remark: listed apart in the source
[10] = target: T4, Human nerve growth factor (NGF); experiment: SPR, kinetic fit (caption of panel 7d: hNGF; BedinvetmAb; 1:1 binding); the set-up for Bedinvetmab is not described in the text; column head 'Kinetics affinity KD (nM)'

Row | Binder | Kd [1] [nM] | Kd [2] [nM] | Kd [3] [nM] | Kd [4] [nM] | IC50 (nM), inhibition of NGF-dependent TF-1 cell proliferation [5] [nM] | Kd [6] [nM] | Kd [7] [nM] | Kd [8] [nM] | Kd [9] [nM] | Kd [10] [nM]
1 | PetML119 (canine p75NTR ECD-canine IgGB wt Fc protein fusion) (Fc fusion, Glycosylated, made in CHO cells; also called Fc-Bwt; Sample 1) KEACPTGLYTHSGECCKACNLGEGVAQPCGANQTVCEPCLDSVTFSDVVSATEPCKPCTECVGLQSMSAPCVEADDAVCRCAYGYYQDETTGRCEACRVCEAGSGLVFSCQDRQNTVCEECPDGTYSDEANHVDPCLPCTVCEDTERQLRECTRWADAECEEIPGGGGRENGRVPRPPDCPKCPAPEMLGGPSVFIFPPKPKDTLLIARTPEVTCVVVDLDPEDPEVQISWFVDGKQMQTAKTQPREEQFNGTYRVVSVLPIGHQDWLKGKQFTCKVNNKALPSPIERTISKARGQAHQPSVYVLPPSREELSKNTVSLTCLIKDFFPPDIDVEWQSNGQQEPESKYRTTPPQLDEDGSYFLYSKLSVDKSRWQRGDTFICAVMHEALHNHYTQKSLSHSPGK | 6000 | 2000 | 2.8 | 0.12 | 15.2 | 0.12 | 1.3 | – | – | –
2 | PetML122 (canine p75NTR ECD-canine Fc YTE protein fusion) (Fc fusion, also called Fc-B-YTE; Sample 2) KEACPTGLYTHSGECCKACNLGEGVAQPCGANQTVCEPCLDSVTFSDVVSATEPCKPCTECVGLQSMSAPCVEADDAVCRCAYGYYQDETTGRCEACRVCEAGSGLVFSCQDRQNTVCEECPDGTYSDEANHVDPCLPCTVCEDTERQLRECTRWADAECEEIPGGGGRENGRVPRPPDCPKCPAPEMLGGPSVFIFPPKPKDTLYITREPEVTCVVVDLDPEDPEVQISWFVDGKQMQTAKTQPREEQFNGTYRVVSVLPIGHQDWLKGKQFTCKVNNKALPSPIERTISKARGQAHQPSVYVLPPSREELSKNTVSLTCLIKDFFPPDIDVEWQSNGQQEPESKYRTTPPQLDEDGSYFLYSKLSVDKSRWQRGDTFICAVMHEALHNHYTQKSLSHSPGK | – | – | – | – | – | – | 15 | 400 | 90 | –
3 | Bedinvetmab (antibody, V domains shown) VH: EVQLVESGGDLVKPGGSLRLSCVASGFTFSSHGMHWVRQSPGKGLQWVAVINSGGSSTYYTDAVKGRFTISRDNAKNTVYLQMNSLRAEDTAMYYCAKESVGGWEQLVGPHFDYWGQGTLVIVSS VL: QSVLTQPTSVSGSLGQRVTISCSGSTNNIGILGASWYQLFPGKAPKLLVYGNGNRPSGVPDRFSGADSGDSVTLTITGLQAEDEADYYCQSFDTTLGAHVFGGGTHLTVL | – | – | – | – | 1.65 | – | – | – | – | 0.073
